Measurements: US20220144957A1 (IMMUNECENT BIOTECHNOLOGY, published 2022)
Read-outs that look alike come from different tables or passages of the source.

What was measured:
Human IFNAR1 SD1-SD4 = target: T1, Human IFNAR1 SD1-SD4 (human, UniProt P17181 28-436, limits assumed); experiment: SPR (Biacore 8K), antibody captured on anti-human IgG Fc, antigen injected
T1 construct: domain: SD1-SD4; Antigen injected in the Biacore assay
T1 sequence (looked up): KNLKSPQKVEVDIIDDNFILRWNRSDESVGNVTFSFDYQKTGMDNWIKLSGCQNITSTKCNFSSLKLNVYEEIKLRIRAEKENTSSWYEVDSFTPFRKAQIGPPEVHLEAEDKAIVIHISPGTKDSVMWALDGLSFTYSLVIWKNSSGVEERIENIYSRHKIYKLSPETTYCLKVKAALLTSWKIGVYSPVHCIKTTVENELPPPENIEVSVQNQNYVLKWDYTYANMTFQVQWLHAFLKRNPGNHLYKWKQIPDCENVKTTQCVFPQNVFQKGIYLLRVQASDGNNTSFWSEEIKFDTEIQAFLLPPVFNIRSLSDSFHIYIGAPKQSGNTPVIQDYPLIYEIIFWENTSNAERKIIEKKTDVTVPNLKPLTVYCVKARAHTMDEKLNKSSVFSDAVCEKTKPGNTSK
Experimental: Preparation of a CM5 chip surface: Using HBS-EP+ (10 mM HEPES, 150 mM NaCl, 3 mM EDTA, 0.05% surfactant P20) as running buffer, both channel 1&2 of a CM5 sensor chip (GE Healthcare, BR-1000-30) were activated with a fresh mixture of 50 mM NHS and 200 mM EDC (1:1). Anti-human IgG Fc, 20 μg/ml in 10 mM NaOAc buffer (pH 5.0), was then passed over the activated surface of the two flow cells in each channel at 10 l/min (target around 10000 RU). […] Low flow rate was maintained over 2 hours for the equilibrium of the immobilized protein.
Measurement of binding kinetics: Each antibody was captured in flow cell FC2 in channel 1&2 around 250 RU respectively, using FC1 as the reference cell, followed by injection of antigen samples at varying concentrations. The signals with captured antibody subtracted from that without captured antibody were calculated with Biacore 8K evaluation software. The running buffer was HBS-EP+(10 mM HEPES, 150 mM NaCl, 3 mM EDTA, 0.05% surfactant P20).

human IFNAR1 ECD = target: T2, human IFNAR1 ECD (human, UniProt P17181 28-436); experiment: ELISA, plate coated with human IFNAR1 ECD, anti-human IgG Fc-peroxidase, OD450
T2 construct: extracellular domain; Coated on ELISA plates at 5 ug/ml
T2 sequence (looked up): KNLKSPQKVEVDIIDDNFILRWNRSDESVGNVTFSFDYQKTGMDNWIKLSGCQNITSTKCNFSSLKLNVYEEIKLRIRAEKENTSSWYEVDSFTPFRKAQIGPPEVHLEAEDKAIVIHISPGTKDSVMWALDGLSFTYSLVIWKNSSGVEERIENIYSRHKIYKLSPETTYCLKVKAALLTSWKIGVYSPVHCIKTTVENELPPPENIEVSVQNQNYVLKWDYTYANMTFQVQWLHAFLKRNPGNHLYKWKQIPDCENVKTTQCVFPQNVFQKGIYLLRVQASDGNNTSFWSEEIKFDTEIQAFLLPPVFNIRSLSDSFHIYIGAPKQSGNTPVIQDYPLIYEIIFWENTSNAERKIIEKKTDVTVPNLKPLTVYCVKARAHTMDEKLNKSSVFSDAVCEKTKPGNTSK
Experimental: 96-well plates were coated with 100ul 5 ug/ml human IFNAR1 ECD in 1×PBS and incubate at 4° C. overnight. The plates were then washed with PBST (1×PBS+0.05% Tween20) for 3 times and blocked with the blocking buffer (1×PBS+0.05% Tween20+1% BSA) at RT for 2 hr. […] The plates were washed with PBST for 3 times, followed by addition of antibody (Anti-Human IgG (Fc specific)-Peroxidase antibody produced in goat, ZSGB-BIO) at 100ul/well and then incubated at RT for 1 hr. The plates were washed with PBST 5 times and then 100ul/well TMB was added and after 15 minutes, the plates were quenched with 50ul/well 2N H₂SO₄. The plates were read with Molecular device spectra max at 450 nm.

[1] = target: T3, human IFNAR1, full length (IFNAR1-aa1-557) (human, UniProt P17181 28-557); experiment: flow cytometry on cells expressing human IFNAR1, MFI of PE
T3 construct: whole, on cells; Overexpressed on HEK293T cells from pIRES2-EGFP-IFNAR1; also used here for the human IFNAR1 of the IFN-I reporter cells and the cells of the virus assays; also called IFNAR1-WT; wild type IFNAR1
T3 sequence (looked up): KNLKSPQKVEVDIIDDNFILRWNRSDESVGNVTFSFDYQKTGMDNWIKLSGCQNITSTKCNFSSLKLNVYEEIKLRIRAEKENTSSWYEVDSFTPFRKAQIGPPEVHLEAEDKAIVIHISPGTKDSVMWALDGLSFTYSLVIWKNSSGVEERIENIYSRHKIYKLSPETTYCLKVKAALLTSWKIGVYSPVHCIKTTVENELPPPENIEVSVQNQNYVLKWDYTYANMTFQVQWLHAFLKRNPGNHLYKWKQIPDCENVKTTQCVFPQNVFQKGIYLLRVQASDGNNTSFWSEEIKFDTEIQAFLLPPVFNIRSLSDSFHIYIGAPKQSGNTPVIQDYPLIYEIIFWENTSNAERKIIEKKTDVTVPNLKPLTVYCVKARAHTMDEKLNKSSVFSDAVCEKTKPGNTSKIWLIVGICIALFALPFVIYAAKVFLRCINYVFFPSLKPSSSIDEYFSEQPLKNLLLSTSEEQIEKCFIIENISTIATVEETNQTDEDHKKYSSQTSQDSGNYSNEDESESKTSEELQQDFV

[2] = target: T3, human IFNAR1, full length …; experiment: as above; remark: listed apart in the source

| Binder | Kd (Human IFNAR1 SD1-SD4) | koff (Human IFNAR1 SD1-SD4) | kon (Human IFNAR1 SD1-SD4) | EC50 (human IFNAR1 ECD) | Top (human IFNAR1 ECD) | EC50 (read off the curve) [1] | EC50 (read off the curve) [2] |
| --- | --- | --- | --- | --- | --- | --- | --- |
| Hu4-16 (antibody, V domains shown, Humanized 7G4 variant) VH: QVQLVQSGAEVKKPGASVKVSCKASGYTFTSYWMNWVRQRPGQGLEWIGKIDPSDSETHFNQKFRDRVTLTVDKSTSTVYMELSSLRSEDTAVYYCARGGRISFDYDAALDYWGQGTLVTVSS VL: DIQMTQSPSSLSASVGDRVTITCKSSEVIYNRLAWYQQKPGNAPKLLISGATTLESGVPSRFSGSGSGKDYTLTISSLQPEDFATYYCQQYWNKPFTFGQGTKLEIK | 0.466 nM | 0.00021 s⁻¹ | 451000 M⁻¹ s⁻¹ | 0.00315 µg/mL | 3.31 OD450 | – | – |
| 7G4 Chimeric (antibody, V domains shown) VH: QVQLQQPGAELVKPGAPVKLSCKASGYTFTSYWMNWVRQRPGRGLEWIGKIDPSDSETHFNQKFRDKATLTVDKSSTTAYIQLSSLTSEDSAVYYCARGGRISFDYDAALDYWGQGTSVTVSS VL: DILMTQSSSSFSVSLGDRVTITCKSSEVIYNRLAWFQQKPGNAPRLLISGATTLESGFPSRFSGSGSGKDYTLSITSLQIEDVSTYYCQQYWNKPFTFGSGTKLEVK | 0.765 nM | 0.000349 s⁻¹ | 456000 M⁻¹ s⁻¹ | 0.00465 µg/mL | 3.27 OD450 | ~0.04 µg/mL | – |
| Hu4-6-mut-1 (antibody, V domains shown, Hu4-6 with A108G in VH (HCDR3)) VH: QVQLVQSGAEVKKPGASVKVSCKASGYTFTSYWMNWVRQAPGQGLEWMGKIDPSDSETHFNQKFRDRVTLTVDKSTSTVYMELSSLRSEDTAVYYCARGGRISFDYDGALDYWGQGTLVTVSS VL: DIQMTQSPSSLSASVGDRVTITCKSSEVIYNRLAWYQQKPGKAPKLLIYGATTLESGVPSRFSGSGSGKDYTLTISSLQPEDFATYYCQQYWNKPFTFGQGTKLEIK | – | – | – | – | – | – | ~0.07 µg/mL |
| Hu4-6-mut-2 (antibody, V domains shown, Hu4-6 with T53S and S56T in VL (LCDR2)) VH: QVQLVQSGAEVKKPGASVKVSCKASGYTFTSYWMNWVRQAPGQGLEWMGKIDPSDSETHFNQKFRDRVTLTVDKSTSTVYMELSSLRSEDTAVYYCARGGRISFDYDAALDYWGQGTLVTVSS VL: DIQMTQSPSSLSASVGDRVTITCKSSEVIYNRLAWYQQKPGKAPKLLIYGATSLETGVPSRFSGSGSGKDYTLTISSLQPEDFATYYCQQYWNKPFTFGQGTKLEIK | – | – | – | – | – | – | ~0.06 µg/mL |
| Hu4-6-mut-3 (antibody, V domains shown, Hu4-6 with A108G in VH and T53S and S56T in VL) VH: QVQLVQSGAEVKKPGASVKVSCKASGYTFTSYWMNWVRQAPGQGLEWMGKIDPSDSETHFNQKFRDRVTLTVDKSTSTVYMELSSLRSEDTAVYYCARGGRISFDYDGALDYWGQGTLVTVSS VL: DIQMTQSPSSLSASVGDRVTITCKSSEVIYNRLAWYQQKPGKAPKLLIYGATSLETGVPSRFSGSGSGKDYTLTISSLQPEDFATYYCQQYWNKPFTFGQGTKLEIK | – | – | – | – | – | – | ~0.06 µg/mL |
